The values that follow are results of earlier work, collected in PMC8410215.

The data set deals with Glu66 (UniProt position 148, FTKKMEENAKK). Particulars: folded protein with Glu66 buried in the interior; water molecules penetrate to form a small channel around the residue.

As for “Staphylococcal nuclease V66E variant (Staphylococcus aureus; V66E)”, the pKa was 8.8.

Broadly, the pKa is the negative logarithm of the acid dissociation constant.
